Data taken from patent publication US11618906B2, “Hydroxylation techniques” (HYPHA DISCOVERY LTD., priority 2018, dated 2023).
Residue numbers refer to the chain shown, from its start. In names and notes the source's numbering stands.

B1: aluC09M34: cytochrome P450 aluC09 mutant T291M; amino acid sequence SEQ ID NO: 48 (protein, listed as Amycolatopsis lurida)
chain: MTDVEETTATLPLARKCPFSPPPEYERLRRESPVSRVGLPSGQTAWALTRLEDIREMLSSPHFSSDRQSPSFPLMVARQIRREDKPFRPSLIAMDPPEHSRARRDVVGEFTVKRMKALQPRIQQIVDEHLDALLAGPKPADLVQALSLPVPSLVICELLGVPYSDHEFFQSCSSRMLSREVTAEERMTAFEQLENYLDELVTKKEANATEDDLLGRQILKQRETGEADHGELVGLAFLLLIAGHETTANMISLGTVTLLENPDQLAKIKADPGKTLAAIEELLRVFTIAEMATSRFATADVEIGGTLIRAGEGVVGLSNAGNHDPDGFENPDTFDIERGARHHVAFGFGVHQCLGQNLARLELQIVFDTLFRRVPGLRIAVPVDELPFKHDSTIYGLHALPVTW
B2: aluC09M11: cytochrome P450 aluC09 mutant T291D; amino acid sequence SEQ ID NO: 8 (protein, listed as Amycolatopsis lurida)
chain: B1 chain with M291D

Legend:
Type in all cases: biochemical
[1] = Hydroxylation of flufenamic acid catalysed by cytochrome P450 aluC09 and mutants; conditions: for Flufenamic Acid (Substrate) 1.93 mins / Hydroxy-Flufenamic Acid (1) 1.69 mins / Hydroxy-Flufenamic Acid (2) 1.65 mins: % by UV peak area at 275 nm, 0.125 mg/ml substrate, 27° C., 16-20 hours; for Hydroxylated Ratio 1:2: flufenamic acid, ratio of UV peak areas at 275 nm
Description: (§1) Lyophilised material of mutants of CYP450aluC09, ferredoxinaluF03 and ferredoxin reductaseSCF15A was made as described in examples 3 and 4 and suspended in water (0.5 mL per vial) and biocatalysis was performed at 27° C. in the following conditions: 50 mM potassium phosphate pH 7.4, 5 mM MgCl2, 0.125 mg/ml substrate compound such as diclofenac (Sigma-Aldrich, UK), Aceclofenac (Tokyo Chemical Industry UK Ltd, UK), Indomethacin (Sigma-Aldrich, UK), Flufenamic acid (Sigma-Aldrich, UK), Napropamide (Sigma-Aldrich, UK), celecoxib (LC Laboratories, USA), valsartan (Tokyo Chemical Industry UK Ltd, UK), ruxolitinib (LC Laboratories, USA), 4-pyrrolidylacetophenone (Sigma-Aldrich, UK), tofacitinib (LC Laboratories, USA), bosentan (CarboSynth Ltd, UK), buparvaquone (MedChemtronica, Sweden), BIRB796 (Stratech Scientific Limited, UK), epothilone B (LC Laboratories, USA), ritonavir (Tokyo Chemical Industry UK Ltd, UK) or tivantinib (MedChemtronica, Sweden), P450AluC09 (concentration as in Table 8), 5 mM G6P, 1 mM NADP, 2 UN/ml G6PDH in a final volume of 100 μL. After 16-20 hours at 200 rpm (5 cm orbital shaker, Kuhner AG, Switzerland), reactions were extracted with an equal volume of acetonitrile, centrifuged to remove precipitated proteins and conversion assessed by UPLC-MS analysis.
(§2) UPLC data was obtained as follows:
(§3) Column: Acquity UPLC BEH Shield RP18 1.7 μm 2.1 mm i.d. 50 mm length
(§4) Solvents: H2O, B: Acetonitrile, both with 0.1% Formic acid
(§5) Detector: Waters Acquity UPLC PDA (UV-Vis detection) and Waters Acquity UPLC QDA (MS)
Flufenamic acid elutes at 1.93 minutes, hydroxy-flufenamic acid 1 elutes at 1.68 minutes and hydroxy-flufenamic acid 2 elutes at 1.65 minutes.

[2] = Metabolism of 4-pyrrolidylacetophenone by P450 aluC09 and mutants; conditions: percent of substrate being converted; 0.125 mg/ml, 27° C., 16-20 hours; [CYP] per enzyme as in Table 8
Description: as §1
(§6) However, of particular note when considering P450 concentration are the results for mutants M12, M20 and M34, as well as the deleterious impact on the range of substrate utility in mutants M39 and M40.

[3] = Metabolism of tofacitinib by P450 aluC09 and mutants; conditions: percent of substrate being converted; 0.125 mg/ml, 27° C., 16-20 hours; [CYP] per enzyme as in Table 8
Description: as §1, §6

[4] = Metabolism of valsartan by P450 aluC09 and mutants; conditions: percent of substrate being converted; 0.125 mg/ml, 27° C., 16-20 hours; [CYP] per enzyme as in Table 8
Description: as §1, §6

[5] = Metabolism of epothilone B by P450 aluC09 and mutants; conditions: percent of substrate being converted; 0.125 mg/ml, 27° C., 16-20 hours; [CYP] per enzyme as in Table 8
Description: as §1, §6

[6] = Hydroxylation of aceclofenac catalysed by cytochrome P450 aluC09 and mutants; conditions: for Aceclofenac (Substrate) (1.80 mins) / Dihydroxy-Aceclofenac (1.42 mins) / Hydroxy-Aceclofenac (1) (1.64 min) / Hydroxy-Aceclofenac (2) (1.60 min): % by UV peak area at 275 nm, 0.125 mg/ml substrate, 27° C., 16-20 hours; for Hydroxylated Ratio 2:1: aceclofenac, ratio of UV peak areas at 275 nm
Description: as §1, §2, §3, §4, §5
Chromatograms are provided in FIGS. 5a-c; aceclofenac elutes at 1.80 minutes, hydroxy-aceclofenac acid 1 elutes at 1.64 minutes, hydroxy-aceclofenac acid 2 elutes at 1.60 minutes and dihydroxy-aceclofenac elutes at 1.42 minutes.

[7] = Hydroxylation of diclofenac catalysed by cytochrome P450 aluC09 and mutants (UPLC-PDA-MS); conditions: for 4′,5-dihydroxy-diclofenac 1.38 mins / 4′-hydroxy-diclofenac (1) 1.62 mins / 5-hydroxy-diclofenac (2) 1.58 mins / Diclofenac (Substrate) 1.81 mins: % by UV peak area at 275 nm, 0.125 mg/ml substrate, 27° C., 16-20 hours; for Hydroxylated Ratio hydroxy 1:hydroxy 2: diclofenac, ratio of UV peak areas at 275nm
Description: as §1, §2, §3, §4, §5
Illustrative results for the hydroxylation of diclofenac by CYP450aluC09 and selected T291x mutants are summarised below in Table 3 with representative chromatograms resented in FIG. 3a-c; retention times: diclofenac 1.85-1.88 minutes, 5-hydroxydiclofenac 1.60-1.63 minutes, 4′-hydroxydiclofenac 1.65-1.68 minutes, 4′,5-dihydroxydiclofenac 1.40-1.42 minutes. The chromatographic retention times and mass spectra coincided with those of authentic samples.

[8] = Metabolism of BIRB796 by P450 aluC09 and mutants; conditions: percent of substrate being converted; 0.125 mg/ml, 27° C., 16-20 hours; [CYP] per enzyme as in Table 8
Description: as §1, §6

[9] = Metabolism of buparvaquone by P450 aluC09 and mutants; conditions: percent of substrate being converted; 0.125 mg/ml, 27° C., 16-20 hours; [CYP] per enzyme as in Table 8
Description: as §1, §6

[10] = Metabolism of celecoxib by P450 aluC09 and mutants; conditions: percent of substrate being converted; 0.125 mg/ml, 27° C., 16-20 hours; [CYP] per enzyme as in Table 8
Description: as §1, §6

[11] = Metabolism of bosentan by P450 aluC09 and mutants; conditions: percent of substrate being converted; 0.125 mg/ml, 27° C., 16-20 hours; [CYP] per enzyme as in Table 8
Description: as §1, §6

[12] = Hydroxylation / de-N-ethylation of napropamide catalysed by cytochrome P450 aluC09 and mutants; conditions: for Desethyl Napropamide (1.62 min) / Desethyl-hydroxy-Napropamide (1.41 min) / Hydroxy-Napropamide (1) (1.53 min) / Hydroxy-Napropamide (2), (1.52 min) / M-2Da (unidentified) (1.89 min) / Napropamide (substrate): % by UV peak area at 275 nm, 0.125 mg/ml substrate, 27° C., 16-20 hours; for Hydroxylated Ratio 2:1: napropamide, ratio of UV peak areas
Description: as §1, §2, §3, §4, §5
Napropamide elutes at 1.76 minutes, unidentified metabolite (−2 Da) elutes at 1.90 minutes, desethyl-napropamide elutes at 1.62 minutes, hydroxy-napropamide 1 elutes at 1.53 minutes and hydroxy-napropamide 2 elutes at 1.52 minutes and the desethyl-hydroxy-napropamide product elutes at 1.41 minutes.

[13] = O-demethylation of indomethacin catalysed by cytochrome P450 aluC09 and mutants; conditions: % by UV peak area at 275 nm; 0.125 mg/ml substrate, 27° C., 16-20 hours
Description: as §1, §2, §3, §4, §5

[14] = Metabolism of ritonavir by P450 aluC09 and mutants; conditions: percent of substrate being converted; 0.125 mg/ml, 27° C., 16-20 hours; [CYP] per enzyme as in Table 8
Description: as §1, §6

[15] = Metabolism of tivantinib by P450 aluC09 and mutants; conditions: percent of substrate being converted; 0.125 mg/ml, 27° C., 16-20 hours; [CYP] per enzyme as in Table 8
Description: as §1, §6

[16] = Metabolism of ruxolitinib by P450 aluC09 and mutants; conditions: percent of substrate being converted; 0.125 mg/ml, 27° C., 16-20 hours; [CYP] per enzyme as in Table 8
Description: as §1, §6

| Molecule | Flufenamic Acid (Substrate) 1.93 mins [1] | Hydroxy-Flufenamic Acid (1) 1.69 mins [1] | Hydroxy-Flufenamic Acid (2) 1.65 mins [1] | Hydroxylated Ratio 1:2 [1] | % conversions (avg) 4-pyrrolidylacetophenone [2] | % conversions (avg) Tofacitinib [3] | % conversions (avg) Valsartan [4] | % conversions (avg) Epothilone B [5] | Aceclofenac (Substrate) (1.80 mins) [6] | Dihydroxy-Aceclofenac (1.42 mins) [6] | Hydroxy-Aceclofenac (1) (1.64 min) [6] | Hydroxy-Aceclofenac (2) (1.60 min) [6] | Hydroxylated Ratio 2:1 [6] | 4′,5-dihydroxy-diclofenac 1.38 mins [7] | 4′-hydroxy-diclofenac (1) 1.62 mins [7] | 5-hydroxy-diclofenac (2) 1.58 mins [7] | Diclofenac (Substrate) 1.81 mins [7] | Hydroxylated Ratio hydroxy 1:hydroxy 2 [7] | % conversions (avg) Buparvaquone [9] | % conversions (avg) Celecoxib [10] | other results |
| --- | --- | --- | --- | --- | --- | --- | --- | --- | --- | --- | --- | --- | --- | --- | --- | --- | --- | --- | --- | --- | --- |
| B1 | 94.0% | 3.8% | 2.2% | 1.7 | 7.3% | 3.1% | 43.2% | 30.7% | 36.6% | 21.3% | 15.2% | 26.8% | 1.8 | 1.3% | 35.3% | 10.4% | 53.6% | 3.4 | 11.6% | 6.8% | % conversions (avg) BIRB796 [8]: 18%; % conversions (avg) Bosentan [11]: 99%; Desethyl Napropamide (1.62 min) [12]: 40.7%; Desethyl-hydroxy-Napropamide (1.41 min) [12]: 5.3%; Hydroxy-Napropamide (1) (1.53 min) [12]: 3.4%; Hydroxy-Napropamide (2), (1.52 min) [12]: 3.7%; M-2Da (unidentified) (1.89 min) [12]: 5.3%; Napropamide (substrate) [12]: 44.0%; Hydroxylated Ratio 2:1 [12]: 1.1; Indomethacin (1.74 mins) [13]: 96.2%; O-demethyl-Indomethacin (1.52 mins) [13]: 3.8%; % conversions (avg) Ritonavir [14]: 50.3%; % conversions (avg) Tivantinib [15]: 59.1% |
| B2 | 94.7% | 3.4% | 1.9% | 1.8 | 21.4% | 1.4% | 26% | 8.5% | 17.5% | 35.2% | 6.3% | 41.0% | 6.5 | 2.3% | 25.3% | 25.1% | 48.3% | 1.0 | 15.8% | 3.2% | % conversions (avg) Ruxolitinib [16]: 35.7%; % conversions (avg) Bosentan [11]: 100%; Desethyl Napropamide (1.62 min) [12]: 36.6%; Desethyl-hydroxy-Napropamide (1.41 min) [12]: 8.7%; Hydroxy-Napropamide (1) (1.53 min) [12]: 1.5%; Hydroxy-Napropamide (2), (1.52 min) [12]: 3.1%; M-2Da (unidentified) (1.89 min) [12]: 6.7%; Napropamide (substrate) [12]: 47.6%; Hydroxylated Ratio 2:1 [12]: 2.1; Indomethacin (1.74 mins) [13]: 92.6%; O-demethyl-Indomethacin (1.52 mins) [13]: 7.4%; % conversions (avg) Ritonavir [14]: 57.3%; % conversions (avg) Tivantinib [15]: 34.2% |
